The record followed here is US20240342305A1 (published 2024).

Changes are numbered by the printed parent chain.

Usually Kd stands for the constant that tells how readily two partners part at equilibrium. As a reminder, the koff is the rate constant with which the complex falls apart. In general, kon refers to a measure of how fast the partners come together.

Assay [1] concerns the target GPC3 expressed on hepatoma cells (HepG2, Huh-7, SK-Hep-1 GPC3) (human, UniProt P51654 25-554). Nature of the assay: cell-based or functional assay.
The target of assay [2] is T1, His-tagged human GPC3 recombinant protein (purchased from Shanghai Rui Jin Biotech Co., Ltd.) (human, UniProt P51654 25-559, limits assumed).
T1 construct: Bought; construct not described; not shown: His tag
Briefly: flow cytometry of CAR T cells stained with His-tagged human GPC3 (50 ug/ml), anti-His-tag antibody and FITC secondary. On the procedure:
Infected CTL cells were detected by flow cytometry on day 8 of culture for the expression of different chimeric antigen receptors. FACS assays were performed using His-tagged human GPC3 recombinant protein (purchased from Shanghai Rui Jin Biotech Co., Ltd.); the cells were firstly incubated with the protein (50 ug/ml) for 1 hr, washed twice with D-PBS, and Anti-His-tag antibody (1:50 dilution, purchased from Shanghai Reagent Biotechnology Co., Ltd.) was added and incubated for 1 hr and then washed twice with D-PBS and then FITC labeled goat anti-mouse secondary antibody (Shanghai Kangcheng Biotechnology Co., Ltd.), incubated for 50 min, washed with D-PBS for three times, and tested by FACS. Uninfected T lymphocytes was used as a negative control, the positive rates of virus-infected T cells expressing different chimeric antigen receptors are shown in Table 4.
A general note: A flow cytometer gives signals particle by particle.

The target in assay [3] is T2, BSA (bovine serum albumin), negative control protein (bovine, UniProt P02769 25-607).
T2 construct: Coated as negative control in the single phage ELISA
T2 sequence (P02769 25-607 limits assumed): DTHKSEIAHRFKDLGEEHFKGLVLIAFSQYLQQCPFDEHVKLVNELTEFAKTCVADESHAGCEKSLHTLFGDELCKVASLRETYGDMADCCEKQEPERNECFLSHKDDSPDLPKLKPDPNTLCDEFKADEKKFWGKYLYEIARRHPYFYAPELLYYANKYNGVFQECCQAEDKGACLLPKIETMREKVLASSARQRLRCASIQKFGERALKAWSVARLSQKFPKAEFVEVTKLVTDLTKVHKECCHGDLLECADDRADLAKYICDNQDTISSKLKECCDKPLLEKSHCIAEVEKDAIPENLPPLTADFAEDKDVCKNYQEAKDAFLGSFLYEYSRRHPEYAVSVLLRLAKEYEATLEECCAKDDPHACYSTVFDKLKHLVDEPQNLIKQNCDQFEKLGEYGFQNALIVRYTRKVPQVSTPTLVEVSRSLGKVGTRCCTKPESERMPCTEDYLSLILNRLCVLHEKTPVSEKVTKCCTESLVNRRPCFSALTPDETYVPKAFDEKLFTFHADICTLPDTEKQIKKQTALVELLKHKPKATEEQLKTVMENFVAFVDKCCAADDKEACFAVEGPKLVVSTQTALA
Nature of the assay: single phage ELISA, BSA coated 100 ng/well. On the procedure: (§1) 96 clones were randomly selected in the clones obtained from the fourth round of screening and their binding capability to human GPC3 was analyzed by single phage ELISA (enzyme-linked immunosorbent assay). For this purpose, each single colony was inoculated in 300 μl of 2×YT/ampicillin medium (containing 2% glucose) in a 96-well deep-well plate and cultured with shaking at 37° C. and 250 rpm for 16 hours. 20 μl of culture was inoculated into 500 μl of 2×YT/ampicillin medium (containing 0.1% glucose) and shaken at 37° C. and 250 rpm for 1.5 hours. To prepare the helper phage solution, 75 μl of M13KO7 (titer of 3×10¹² pfu/ml) was taken and mixed into 15 ml of 2×YT medium and added into a culture plate at 50 μl/well, and incubated at 37° C. and 150 rpm for 30 minutes. And then prepared kanamycin solution (180 μl of 50 mg/ml kanamycin was taken and added into 15 ml of 2×YT medium) was added at 50 μl/well and incubated with shaking for 16 hours at 37° C. and 250 rpm. Finally, cells were precipitated by centrifugation (30 mins, 5000×g, 4° C.) and the supernatant was transferred to a new 96-well deep-well plate.
(§2) For single phage ELISA, 100 ng/well of antigen GPC3 and negative control protein BSA (100 μl/well) were used in a 96-well MediSorp ELISA plate (purchased from Nunc) and coated overnight at 4° C. […] Extinction values were measured at 450 nm with an enzyme-linked immunosorbent (Bio-Rad).

Assay [4] addresses T3, human GPC3 recombinant protein (purchased from Shanghai Rui Jin Biotechnology Co., Ltd.) (human, UniProt P51654 25-559, limits assumed).
T3 construct: Bought recombinant protein; also called huGPC3; antigen GPC3
Briefly: single phage ELISA, GPC3 coated 100 ng/well. On the procedure: as §1, §2
On the technique in general: In an ELISA, binding on a coated surface is turned into a signal by an enzyme label.

The target in assay [5] is T3, human GPC3 recombinant protein …. Briefly: SPR Biacore T200, human GPC3 amine-coupled to CM5 (305 RU), antibody as analyte, multi-cycle kinetics, 25 °C. The procedure: (§3) To quantitatively analyze the binding of antibody Y035 to antigen human GPC3, the affinity and kinetic parameters of antibody Y035 were measured by multi-cycle kinetic assay using Biacore T200 system (from GE). Antigen human GPC3 (purchased from Shanghai Rui-Jin Biotechnology Co., Ltd.) was coupled to carboxymethyl dextran surface of sensor chip CM5 through primary amino with NHS/EDC coupling according to the manufacturer's instructions, and the final amount of the conjugated ligand was 305RU. Kinetic measurements were performed in 1×HBS-EP+working buffer at 25° C., 30 μl/min, and regeneration condition was 10 mM Glycine-HCl (pH2.5), 10 μl/min for 25 seconds. In each round of the testing cycle, antibody Y035 of a certain concentration flowed over the chip surface. The interaction between the antibody and the antigen protein human GPC3 fixed on the chip caused the change of the molecular concentration on the surface of the sensor chip which was measured according to changes in SPR Signal and expressed in resonance units (RU). Time vs resonance unit (RU) was plotted and after RU value of the reference channel without fixed antigen was subtracted, the resulting sensorgram documents the entire reaction including the binding and dissociation processes. In different cycles of kinetic assay, the concentration of antibody Y035 was 6.25 nM, 12.5 nM, 25 nM, 50 nM and 100 nM, respectively. The resulting curves were evaluated using Biacore T200 evaluation software and the affinity KD values were calculated. Using the same method, the affinity and kinetic parameters of the parental murine monoclonal antibody 5A5 prior to humanization of Y035 were also assayed. The binding data of antibodies Y035 and 5A5 to human GPC3 proteins, respectively, are summarized in Table 2, and humanized antibody Y035 binds human GPC3 protein much better than mouse 5A5 after humanization.
(SPR reads the build-up and loss of mass on a sensor chip optically.)

Assay [6] has the same target. Briefly: SPR Biacore T200, human GPC3 amine-coupled to CM5, antibody as analyte, multi-cycle kinetics, 25 °C. On the procedure: as §3

B1: chimeric antigen receptor P7D4-δZ (P7D4 scFv-CD8-CD3δzeta), on T cells (other)
chain: QVQLQESGGGLVQPGRSLRLSCAASGFTFSSYAMHWVRQAPGKGLEWVSAISGSGGSTYYADSVKGRFTISRDNSKNTLYLQMNSLRAEDTAVYYCAKDRRGSHADAFDVWGQGTLVTVSSGGGGSGGGGSGGGGSQSALTQPPSASGSPGQSVTISCTGTSSDVGGYNYVSWYQQYPGKAPKLLIYGNSNRPSGVPDRFSGSKSGTSASLAITGLQAEDGADYYCQSYDSSLRVVFGGGTKVTVLGTTTPAPRPPTPAPTIASQPLSLRPEACRPAAGGAVHTRGLDFACDIYIWAPLAGTCGVLLLSLVITRVKFSRSADAPA
notes: Chimeric antigen receptor on lentivirus-infected human T cells; negative control without ITAM; also called P7D4-8Z; P7D4 scFv-δZ
With B1, in assay [1], the “Cytotoxicity (%) on HepG2 cells, effector target ratio 1:1 (LDH release, 18 h); signalling-dead negative control CAR” value came out at 2.5%; the “Cytotoxicity (%) on HepG2 cells, effector target ratio 1:3 (LDH release, 18 h); signalling-dead negative control CAR” value came to 3.2%; the “Cytotoxicity (%) on HepG2 cells, effector target ratio 3:1 (LDH release, 18 h); signalling-dead negative control CAR” value is 4.8%; the “Cytotoxicity (%) on HuH-7 cells, effector target ratio 1:1 (LDH release, 18 h); signalling-dead negative control CAR” value was 1.3%. In assay [1], the “Cytotoxicity (%) on HuH-7 cells, effector target ratio 1:3 (LDH release, 18 h); signalling-dead negative control CAR” value amounted to 5.3% and the “Cytotoxicity (%) on HuH-7 cells, effector target ratio 3:1 (LDH release, 18 h); signalling-dead negative control CAR” value came to 3.2%. Besides, the “Positive rate of T cells transfection” value in assay [2] was determined as 59%.

B2: single chain antibody P7D4 (phage-displayed scFv) (scFv)
scFv: QVQLQESGGGLVQPGRSLRLSCAASGFTFSSYAMHWVRQAPGKGLEWVSAISGSGGSTYYADSVKGRFTISRDNSKNTLYLQMNSLRAEDTAVYYCAKDRRGSHADAFDVWGQGTLVTVSSGGGGSGGGGSGGGGSQSALTQPPSASGSPGQSVTISCTGTSSDVGGYNYVSWYQQYPGKAPKLLIYGNSNRPSGVPDRFSGSKSGTSASLAITGLQAEDGADYYCQSYDSSLRVVFGGGTKVTVLG
notes: Tested as single phage (M13, phagemid pCantab 5E) culture supernatant in ELISA
As for B2, the binding result in assay [3] is on record as “no binding”; in assay [4], “binds”.

B3: chimeric antigen receptor P7D4-BBZ (P7D4 scFv-CD8-CD137-CD3 zeta), on T cells (other)
chain: QVQLQESGGGLVQPGRSLRLSCAASGFTFSSYAMHWVRQAPGKGLEWVSAISGSGGSTYYADSVKGRFTISRDNSKNTLYLQMNSLRAEDTAVYYCAKDRRGSHADAFDVWGQGTLVTVSSGGGGSGGGGSGGGGSQSALTQPPSASGSPGQSVTISCTGTSSDVGGYNYVSWYQQYPGKAPKLLIYGNSNRPSGVPDRFSGSKSGTSASLAITGLQAEDGADYYCQSYDSSLRVVFGGGTKVTVLGTTTPAPRPPTPAPTIASQPLSLRPEACRPAAGGAVHTRGLDFACDIYIWAPLAGTCGVLLLSLVITLYCKRGRKKLLYIFKQPFMRPVQTTQEEDGCSCRFPEEEEGGCELRVKFSRSADAPAYKQGQNQLYNELNLGRREEYDVLDKRRGRDPEMGGKPRRKNPQEGLYNELQKDKMAEAYSEIGMKGERRRGKGHDGLYQGLSTATKDTYDALHMQALPPR
notes: Second generation CAR on human T cells; also called P7D4 scFv-BBZ
As to B3, in assay [1], the “Cytotoxicity (%) on HepG2 cells, effector target ratio 1:1 (LDH release, 18 h)” value was found to be 38.6%; the “Cytotoxicity (%) on HepG2 cells, effector target ratio 1:3 (LDH release, 18 h)” value turned out to be 13.9%; the “Cytotoxicity (%) on HepG2 cells, effector target ratio 3:1 (LDH release, 18 h)” value is 71.3%; the “Cytotoxicity (%) on HuH-7 cells, effector target ratio 1:1 (LDH release, 18 h)” value was found to be 32.2%. Besides, in assay [1], the “Cytotoxicity (%) on HuH-7 cells, effector target ratio 1:3 (LDH release, 18 h)” value was 10.2% and the “Cytotoxicity (%) on HuH-7 cells, effector target ratio 3:1 (LDH release, 18 h)” value stood at 69.2%. For the same molecule, the “Positive rate of T cells transfection” value in assay [2] is 53%.

B4: humanized antibody Y035 (antibody, V domains shown)
VH: EVQLVQSGAEVKKPGASVKVSCKASGYTFSDYEMHWVRQAPGQGLEWMGAIHPGSGDTAYNQRFKGRVTITADKSTSTAYMELSSLRSEDTAVYYCARFYSYAYWGQGTLVTVSA
VL: DIVMTQTPLSLPVTPGEPASISCRSSQSLVHSNGNTYLQWYLQKPGQSPQLLIYKVSNRFSGVPDRFSGSGSGTDFTLKISRVEAEDVGVYYCSQSIYVPYTFGQGTKLEIKR
notes: Whole antibody expressed in 293F from vectors pIH-hu12H (heavy) and pIK-hu12L (light), purified on Protein A, detected with goat anti-human antibody
B4: in assay [5], the Kd is 0.0634 nM, the koff stood at 2.51e-05 s⁻¹ and the on-rate constant (kon) was 396000 M⁻¹ s⁻¹.

B5: parental murine monoclonal antibody 5A5 (antibody, V domains shown)
VH: QVQLQQSGTELVRPGASVKLSCKALGYTFTDYEMHWVKQTPVHGLEWIGAIHPGSGDTAYNQRFKGKATLTADKSSSTAYMEYSSLTSEDSAVYYCTRFYSYAYWGQGTLVTVSA
VL: B4 VL with I2V, T14S, P15L, E17D, P18Q, Q50K, S70R, V88L, Y92F, Q105G
notes: Mouse hybridoma antibody purified from ascites on Protein G; also called mouse 5A5
For B5, in assay [6], the Kd worked out at 0.0819 nM, the koff turned out to be 2.3e-05 s⁻¹ and the kon turned out to be 280000 M⁻¹ s⁻¹.

B6: single chain antibody P1B12E (phage-displayed scFv) (scFv)
scFv: QVQLVESGAEVKKPGASVKVSCKASGGTFSSYAISWVRQAPGQGLEWMGGIIPIFGTANYAQKFQGRVTITADESTSTAYMELSSLRSEDTAVYYCAKSPFSGTPGEYWGRGTLVTVSSGGGGSGGGGSGGGGSEIVLTQSPGTLSLSPGERATLSCRASQSVSSNYLAWYQQKPGQAPRLLIYGASRRATGIPDRFSGSGSGTDFTLTISRVEPEDFAVYHCQQYGASPKTFGQGTKLEIKR
notes: Tested as single phage (M13, phagemid pCantab 5E) culture supernatant in ELISA; the phage coat fusion is not described
B6: the figures for the binding result in assay [3] and in assay [4] were “no binding” and “binds”, respectively.
